The numbers were not newly measured in publication PMC6414276, which cites them from elsewhere.

Data set [1] concerns the target CBP TAZ1 (Mus musculus) (UniProt P45481).
Data set [2] shares this target. This is another data set of the same source.
Data set [3] shares this target. The source holds these as a separate data set.

Read-outs that look alike come from different tables or passages of the source.

Sequence of UniProt P45481 (P45481 340-439): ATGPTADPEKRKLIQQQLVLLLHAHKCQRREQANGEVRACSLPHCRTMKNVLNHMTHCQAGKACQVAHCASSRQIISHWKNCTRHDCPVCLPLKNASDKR

A word on the Kd: it is the equilibrium constant for the complex coming apart. On to HIF-1α αC motif (from UniProt Q16665), for which the equilibrium dissociation constant (Kd) with CBP TAZ1 (Mus musculus) [1] is 200 µM.

Turning to “HIF-1α LPQL-αB motif (from UniProt Q16665)”, the dissociation constant (Kd) in the data set with CBP TAZ1 (Mus musculus) [2] is more than 1000 µM.

In the case of HIF-1α 790-826 (from UniProt Q16665), the equilibrium dissociation constant (Kd) with CBP TAZ1 (Mus musculus) [3] is 0.047 µM.
